Assay results reported in the supplement of paper PMC10567573.

B1: CCNC (parent)
chain: QSSHYLQWILDKQDLLKERQKDLK
B2: HDAC6 (parent)
chain: KMKTRELHRESSNFDSIYICPSTF

Variants of: B1
Assay: protein stability index of a GFP-peptide fusion (GPS, HEK-293T) (PSI 1-6); higher = more stable
Settings: c terminus: a fixed tail appended
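Note: lentivirally expressed fusions sorted by FACS into six bins by GFP to DsRed ratio, PSI derived from sequencing read proportions per bin multiplied by bin number.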

Protein stability index of substitutions, site by site:
Q1: G 3.6, R 3.1, A 2.78, L 2.78, D 2.94, Y 2.53, P 3.77, H 2.04, W 1.44, E 2.72, S 3.16, N 3.13, V 2.74, K 2.5, I 2.28, C 3.1
S3: H 2.95, E 3.87, A 3.9, R 3.04, C 3.02, Y 2.34, T 2.42, V 2.29, L 1.92, D 3.9, F 1.94, Q 2.68, P 3.22, M 2.38, W 2.32, G 3.39, N 3.17, I 2.02, K 2.82
S2: C 2.27, M 1.49, T 2.84, Y 1.96, K 2.46, W 2.7, H 3.02, F 1.1, I 2.07, A 2.14, P 3.01, N 3.15, L 1.95, E 3.3, G 2.78, V 2.64, R 2.39, D 3.46, Q 2.9
Y5: A 2.59
H4: A 3, S 3.2, T 2.79, W 2.65, F 1.88, N 3.27, M 3.97, C 2.22, D 3.55, Q 2.52, V 2.5, Y 3.21, E 3.5, G 3.03, K 2.54, I 2.09, R 2.39, L 2.34, P 2.72

Variants of: B2
Assay: as above
Settings: c terminus: a fixed tail appended

Protein stability index, by site and new letter:
D15: L 4.27, R 1.89, Q 1.96, H 1.44, V 2.11, K 1.79, P 1.68, N 2.01, Y 1.63, W 2.21, G 1.69, S 2.04, M 1.92, F 2.02, E 1.93, T 1.9, C 2.82, A 2
F24: R 2.98, V 2.82, S 2.96, Q 2.62, P 2.75, C 2.97, D 3.99, L 2.69, W 2.65, M 2.65, A 3.73, Y 2.88, G 3.15, N 2.95, E 3.87, I 2.31, K 3.36, H 2.76, T 3.65
S12: Y 1.53, E 3.25, C 1.89, I 1.94, Q 2.54, V 2.38, P 2.12, D 2.29, A 2.34, F 1.74, W 2.17, R 1.95, H 2.46, N 2.04, L 1.83, K 2.74, M 1.55, G 3.05, T 2.17
Y18: H 2.41, N 3.56, W 2.38, R 2.52, P 3.33, C 2.29, Q 2.96, D 3.8, F 2.05, T 3.32, M 2.4, K 2.44, V 2.86, S 2.72, A 4.07, I 2.31, L 2.82, E 3.45, G 3.09
I19: W 3.01, N 3.22, C 2.34, T 2.25, H 3.1, E 3.81, A 2.74, K 2.94, F 2.81, M 1.44, L 3.14, P 3.35, V 2.8, G 2.91, R 2.47, S 2.35, D 3.44, Q 3.2, Y 2.16
S11: R 1.71, P 2.13, Q 2.36, N 2.3, T 2.41, E 2.2, M 1.61, Y 1.98, K 2.72, A 1.87, F 1.71, I 2.71, L 1.66, H 3.04, V 2.3, W 2.85, C 1.75, G 1.96, D 2.54
S16: Q 1.91, A 1.88, P 2.47, D 2.68, R 2.83, T 2.62, N 1.31, M 1.66, Y 1.85, V 2.12, F 2.08, L 1.74, C 1.76, E 3.02, H 1.99, K 2.29, G 2.14, I 1.54
F14: A 3.84, Q 3.71, R 1.7, D 2.79, V 2.68, I 2.58, G 4.12, H 2.88, N 3.05, Y 1.78, L 2.41, P 2.99, T 3.11, E 3.34, M 2.44, W 2.01, K 3.03, C 2.24, S 2.8
P21: H 1.34, E 1.91, Q 1.94, R 1.78, N 2.37, T 1.54, D 2.91, K 2.32, C 2.71, A 1.77, S 1.74, F 2.44, V 2.33, G 1.95
E10: W 1.22, Y 1.56, V 2.04
C20: P 2.69, L 2.2, E 3.34, A 2.86, S 2.48, I 1.69, F 2.21, N 3.23, G 2.22, R 2.61, D 2.54, H 2.94, Y 2.07, M 2.17, Q 3.13, K 2.15, V 2.24, T 2.76
N13: W 1.93, I 1.73, K 2.23, F 1.45, Y 1.64, R 3.21, L 1.74, G 2.68, V 1.98, P 2.49, A 1.93, S 1.97, E 2.23, T 2.35, Q 2.44, C 1.79, M 2.58, D 2.61, H 1.58
T23: G 2.46, R 2.05, D 2.56, E 1.96, C 2.5, W 1.62, K 2.25, F 1.96, V 2.92, S 2.59, I 1.71, P 2.61, M 2.44, N 3, Y 1.83, H 2.28, L 2.21, A 2.16
S22: G 2.06, C 1.85, T 1.74, H 2.09, F 2.19, Y 1.98, P 2.65, E 2.66, N 2.13, L 1.42, W 3.05, D 2.76, R 1.83, M 1.42, K 3.33, Q 1.78, A 2.14, I 1.65, V 1.6
I17: L 2.13, H 3.15, T 3.25, M 2.57, W 2.06, A 2.96, F 1.85, R 2.97, V 2.27, E 3.19, Q 2.48, S 2.45, P 2.41, N 2.9, K 3.31, C 2.49, D 3.75, G 2.51, Y 2.11
